Measurements published in PMC12167710 (Nature Biotechnology, 2024).

B1: mRBD1 (antibody, V domains shown)
VH: QVQLQQPGAELVKPGASVKVSCKASGYTFTSYWMHWVKQRPGQGLEWIGRIHPSDSDTNYNQKFKGKATLTVDKSSNTAYMQLSSLTSEDSAVYYCAILDCYWYFDVWGTGTTVTVSS
VL: QIVLTQSPAIMSASPGEKVTMTCSASSSVSYMYWYQQKPGSSPRLLIYDTSNLASGVPVRFSGSGSGTSYSLTISRMEAEDAATYYCQQWSSYPLTFGAGTKLELK
B2: mRBD16 (antibody, V domains shown)
VH: QIQLVQSGPELKKPGETVKISCKASGYTLTEYPMHWVKQAPGKGFKWMGMIYTDTGEPTYAEEFKGRFAFSLETSASTAYLQINNLKNEDTATYFCVRAGPSFAMDYWGQGTSVTVSS
VL: NIVLTQSPASLAVSLGQRATISCRASESVDSYGNSFMHWYQQKPGQPPKLLIYLASNLESGVPARFSGSGSRTDFTLTIDPVEADDAATYYCQQNNEDPYTFGGGTKLEIK
B3: mRBD22 (antibody, V domains shown)
VH: QIQLVQSGPELKKPGETVKISCKASGYTFTEYPMHWVKQAPGKGFKWMGMIYTDTGEPTYAEEFKGRFAFSLETSASTAYLQINNLKNEDTATYFCVRGGYYYFDYWGQGTTLTVSS
VL: NIVLTQSPASLAVSLGQRATISCRASESVDSYGNSFMHWYQQKPGQPPKLLIYLASNLESGVPARFSGSGSRTDFTLTIDPVEADDAATYYCQQNNEDPWTFGGGTKLEIK
B4: mRBD21 (antibody, V domains shown)
VH: QIQLVQSGPELKKPGETVKISCKASGYTFTKYPMHWVKQAPGKGFKWMGMIYTDTGEPTYAEEFKGRCAFSLETSASTAYLQINNLKNEDTATYFCVRWGGSYALDYWGQGTSVTVSS
VL: DIVLTQSPASLAVSLGQRATISCRASESVDSYGNSFMHWYQQKPGQPPKLLIYRASNLESGIPARFSGSGSRTDFTLTINPVEADDVATYYCQQSNEDPLTFGAGTKLELK
B5: mRBD15 (antibody, V domains shown)
VH: QIQLVQSGPDLKKPGETVKISCKASGYTFTEYPMHWVKQAPGKGFQWMGMIYTDTGEPTYAEEFKGRFAFSLETSASTAYLQINNLKNEDTSTYFCVRAGPSYAMDYWGQGTSVTVSS
VL: NIVLTQSPASLAVSLGQRATISCRASESVDSYGNSFMHWYQQKPGQPPKLLIYLASNVESGVPARFSGSGSRTDFTLTIDPVEADDAATYYCHQINEDPYTFGGGTKLEIK
B6: mRBD20 (antibody, V domains shown)
VH: QIQLVQSGPELKKPGETVKISCKASGYTLTEYPMHWVKQAPGKGFKWMGMIYTDTGEPTYAEEFKGRFAFSLETSASTAYLQINNLKNEDTATYFCVRAGPSYAMDYWGQGTSVTVSS
VL: NIVLTQSPASLAMSLGQRATISCRASESVDSYGNSFMHWYQLKPGQPPKLLIYLASNLESGVPARFSGSGSRTDFTLTIDPVEADDAATYYCQQNNEDPYTFGGGTKLEIK
B7: mRBD19 (antibody, V domains shown)
VH: QIQLVQSGPELKKPGETVKISCKASGYTFTEYPMHWVKQAPGKGFKWMGMIYTDTGEPTYAEEFKGRFAFSLETSASTAYLQINNLKNEDTATYFCVRGGPYYAMDYWGQGTSVTVSS
VL: NIVLTQSPASLAVSLGQRATISCRASESVDSYGNSFMHWYQQKPGQPPKLLIYLASNLESGVPARFSGSGSRTDFTLTIDPVEADDAATYYCQQNNEDPWTFGGGTKLEIK
B8: mRBD24 (antibody, V domains shown)
VH: EVQLQQSGPDLVKPGASVKISCKASGYTFTDYYMNWVKQSHGKSLEWIGDINPNNGGTYYNQKFKGKATLTVDKSSSTAYMELRSLTSEDSAVYYCARQLRRWGQGTLVTVSA
VL: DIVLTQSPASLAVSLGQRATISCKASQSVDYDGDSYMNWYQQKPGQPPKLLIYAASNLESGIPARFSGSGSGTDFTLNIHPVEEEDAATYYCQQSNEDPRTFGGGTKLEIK
B9: mRBD23 (antibody, V domains shown)
VH: QVQLQQPGAELVRPGSSVKLSCKASGYTFTSYWMHWVKQRPIQGLEWIGNIDPSDSETHYNQKFKDKATLTVDKSSSTAYMQLSSLTSEDSAVYYCTRPGSLRSRGWYFDVWGTGTTVTVSS
VL: DIVMTQAAPSVPVTPGESVSISCRSSKSLLHSNGNTYLYWFLQRPGQSPQLLIYRMSNLASGVPDRFSGSGSGTAFTLRISRVEAEDVGVYYCMQHLEYPYTFGGGTKLEIK
B10: mRBD4 (antibody, V domains shown)
VH: QVQLQQPGAELVMPGASVKLSCKASGYTFTSYWMHWVKQRPGQGLEWIGEIDPSDSYTNYNQKFKDKSTLTVDKSSSTAYMQLSSLTSEDSAVYYCARGGVYYYGSSHYFDYWGQGTTLTVSS
VL: DIVMTQAAPSVPVTPGESVSISCRSSKSLLHSNGNTYLYWFLQRPGQSPQFLIYRMSNLASGVPDRFSGSGSGTAFTLRISRVEAEDVGVYYCMQHLEYPFTFGSGTKLEIK
B11: mRBD3 (antibody, V domains shown)
VH: QVQLQQPGAELVMPGTSVKLSCKASGYIFTSYWMHWVKQRPGQGLEWIGEIDPSDNYTNYNQKFKGKSTLTVDKSSSTAYMQLSSLTSEDSAVYYCARGGLYYYGSSYDAMDYWGQGTSVTVSS
VL: DIVMTQAAPSVPVTPGESVSISCRSSKSLLHSNGNTYLYWFLQRPGQSPQLLIYRMSNLASGVPDRFSGSGSGTAFTLRISRVEAEDVGAYYCMQHLEYPFTFGSGTKLEIK
B12: mRBD25 (antibody, V domains shown)
VH: QVQLQQSGPELVKPGASVKISCKASGYAFSNSWMNWVKQRPGKGLEWIGRIYPGDGDTNYNGKFKGKATLTADKSSSTAYMQLSSLTSEDSAVYFCANYYGDYWGQGTTLTVSS
VL: QIVLTQSPALMSASPGEKVTMTCSASSSVSYMYWYQQKPRSSPKPWIYLTSNLASGVPARFSGSGSGTSYSLTISSMEAEDAATYYCQQWSSNPYTFGGGTKLEIK
B13: mRBD12 (antibody, V domains shown)
VH: QVQLQQSGAELARPGASVKLSCKASGYTFTSYGISWVKQRTGQGLEWIGEIYPRSGNTYYNEKFKGKATLTADKSSSTAYMEVRSLTSEDSAVYFCAREGGYGYVMDYWGQGTSVTVSS
VL: DIQMTQTTSSLSASLGDRVTISCRASQDISNYLNWYQQKPDGTVKLLIYYTSRLHSGVPSRFSGSGSGTDYSFTISNLEQEDIATYFCQQGNTLPWTFGGGTKLEIK
B14: mRBD17 (antibody, V domains shown)
VH: QIQLVQSGPELKKPGETVKISCKASGYTLTEYPMHWVKQAPGKGFKWMGMIYTDTGEPTYAEEFKGRFAFSLETSASTAYLQINNLKNEDTATYFCVRAGPSFAMDYWGQGTSVTVSS
VL: DIQMTQTTSSLSASLGDRVTISCRASQDISNYLNWYQQKPDGTVKLLIYYTSRLHSGVPSRFSGSGSGTDYSLTISNLEQEDFATYFCQQGNTLPYTFGGGTKLEIK
B15: mRBD2 (antibody, V domains shown)
VH: QVQLQQSGAELARPGASVKLSCKASGYTFISNGISWVKQRTGQGLEWIGEIYPRNGNTYYNEKFKGKATLTADKSSSTAYMELRSLTSEDSAVFFCARDYYYGSFDYWGQGTTLTVSS
VL: DIQMTQSPSSLSASLGERVSLTCRASREISGYLTWLQQKPDGTIKRLIYAASTLDSGVPKRFSGSRSGSDYSLTISSLESEDFADYYCLQYASYPWTFGGGTKLEIK
B16: mRBD18 (antibody, V domains shown)
VH: QIQLVQSGPELKKPGETVKISCKASGYTFTDYPMHWVQQAPGKGFKWMGMIYTDTGEPTYAEEFKGRFAFSLETSASTAYLQINNLKNEDTATYFCVRWAGYFDYWGQGTTLTVSS
VL: DIVLTQSPASLAVSLGQRATISCRASESVDSYGNSFMDWYQQKPGQPPKLLIYRASNLESGIPARFSGSGSRTDFTLIINPVEADDVATYYCQQSNEHPLTFGAGTKLELK

Target: T1, receptor-binding domain (RBD) of the wild-type SARS-CoV-2 spike protein (SARS-CoV-2, UniProt P0DTC2 333-527)
T1 construct: also called SARS-CoV-2 RBD
Test: ELISA
Settings: both partners purified

Point of comparison: B12, EC50 0.0815 nM. Against it:
- B1 — 1.6-fold higher, 0.134 nM
- B2 — within 1.5-fold, 0.0895 nM
- B3 — 2.7-fold higher, 0.218 nM
- B4 — 2.2-fold higher, 0.18 nM
- B5 — 1.5-fold higher, 0.124 nM
- B6 — 1.9-fold higher, 0.153 nM
- B7 — 1.5-fold higher, 0.123 nM
- B8 — within 1.5-fold, 0.0635 nM
- B9 — 3.7-fold higher, 0.304 nM
- B10 — 2.5-fold higher, 0.202 nM
- B11 — within 1.5-fold, 0.102 nM
- B13 — within 1.5-fold, 0.109 nM
- B14 — 180-fold higher, 14.8 nM
- B15 — within 1.5-fold, 0.0896 nM
- B16 — 2.7-fold higher, 0.222 nM
